One substance from patent US20230250170A1 can be followed below.

Assay [1] has as its target human NPR1 on HEK293/hNPR1 cells (human) (UniProt P16066). As to the kind of experiment: cell-based or functional assay.
Assay [2] concerns the target dog NPR1 extracellular domain expressed with a C-terminal myc-myc-hexahistidine (dog). As to the kind of experiment: SPR Biacore 8K, mAb captured via anti-hFc, 25 C. For orientation: In SPR one partner is held on a chip, and binding of the other changes the refractive index at the surface.
Assay [3] has as its target human NPR1 extracellular domain expressed with a C-terminal myc-myc-hexahistidine (human) (UniProt P16066). As to the kind of experiment: SPR Biacore 8K, mAb captured via anti-hFc, 25 C.
For assay [4], the target named is monkey NPR1 extracellular domain expressed with a C-terminal myc-myc-hexahistidine (monkey). As to the kind of experiment: SPR Biacore 8K, mAb captured via anti-hFc, 25 C.
The target in assay [5] is mouse NPR1 extracellular domain expressed with a C-terminal myc-myc-hexahistidine (mouse) (UniProt P18293). As to the kind of experiment: SPR Biacore 8K, mAb captured via anti-hFc, 25 C.
Assay [6] deals with pig NPR1 extracellular domain expressed with a C-terminal myc-myc-hexahistidine (pig). As to the kind of experiment: SPR Biacore 8K, mAb captured via anti-hFc, 25 C.
For assay [7], the target named is dog NPR1 extracellular domain expressed with a C-terminal myc-myc-hexahistidine (dog). As to the kind of experiment: SPR Biacore 8K, mAb captured via anti-hFc, 37 C.
The target of assay [8] is human NPR1 extracellular domain expressed with a C-terminal myc-myc-hexahistidine (human) (UniProt P16066). As to the kind of experiment: SPR Biacore 8K, mAb captured via anti-hFc, 37 C.
For assay [9], the target named is monkey NPR1 extracellular domain expressed with a C-terminal myc-myc-hexahistidine (monkey). As to the kind of experiment: SPR Biacore 8K, mAb captured via anti-hFc, 37 C.
In assay [10] the target is mouse NPR1 extracellular domain expressed with a C-terminal myc-myc-hexahistidine (mouse) (UniProt P18293). As to the kind of experiment: SPR Biacore 8K, mAb captured via anti-hFc, 37 C.
The target in assay [11] is pig NPR1 extracellular domain expressed with a C-terminal myc-myc-hexahistidine (pig). As to the kind of experiment: SPR Biacore 8K, mAb captured via anti-hFc, 37 C.
Assay [12] addresses hNPR1-MMH in the presence of hANP (receptor-ligand complex) (human) (UniProt P01160). As to the kind of experiment: SPR Biacore 8K, mAb captured via anti-hFc, 25 C, 10-fold hANP present.
Assay [13] has the same target. As to the kind of experiment: SPR Biacore 8K, mAb captured via anti-hFc, 37 C, 10-fold hANP present.
For assay [14], the target named is human NPR1 extracellular domain expressed with a C-terminal myc-myc-hexahistidine (human) (UniProt P16066). As to the kind of experiment: SPR Biacore 4000, mAb captured via anti-hFc, 37 C, binding pH 7.4, dissociation pH 7.4.
Assay [15] concerns the target monkey NPR1 extracellular domain expressed with a C-terminal myc-myc-hexahistidine (monkey). The assay is described as above.
In assay [16] the target is human NPR1 extracellular domain expressed with a C-terminal myc-myc-hexahistidine (human) (UniProt P16066). As to the kind of experiment: SPR Biacore 4000, mAb captured via anti-hFc, 37 C, binding pH 7.4, dissociation pH 6.0.
The target of assay [17] is monkey NPR1 extracellular domain expressed with a C-terminal myc-myc-hexahistidine (monkey). The assay is described as above.

Chain of human NPR1 on HEK293/hNPR1 cells (human) (P16066 33-1061): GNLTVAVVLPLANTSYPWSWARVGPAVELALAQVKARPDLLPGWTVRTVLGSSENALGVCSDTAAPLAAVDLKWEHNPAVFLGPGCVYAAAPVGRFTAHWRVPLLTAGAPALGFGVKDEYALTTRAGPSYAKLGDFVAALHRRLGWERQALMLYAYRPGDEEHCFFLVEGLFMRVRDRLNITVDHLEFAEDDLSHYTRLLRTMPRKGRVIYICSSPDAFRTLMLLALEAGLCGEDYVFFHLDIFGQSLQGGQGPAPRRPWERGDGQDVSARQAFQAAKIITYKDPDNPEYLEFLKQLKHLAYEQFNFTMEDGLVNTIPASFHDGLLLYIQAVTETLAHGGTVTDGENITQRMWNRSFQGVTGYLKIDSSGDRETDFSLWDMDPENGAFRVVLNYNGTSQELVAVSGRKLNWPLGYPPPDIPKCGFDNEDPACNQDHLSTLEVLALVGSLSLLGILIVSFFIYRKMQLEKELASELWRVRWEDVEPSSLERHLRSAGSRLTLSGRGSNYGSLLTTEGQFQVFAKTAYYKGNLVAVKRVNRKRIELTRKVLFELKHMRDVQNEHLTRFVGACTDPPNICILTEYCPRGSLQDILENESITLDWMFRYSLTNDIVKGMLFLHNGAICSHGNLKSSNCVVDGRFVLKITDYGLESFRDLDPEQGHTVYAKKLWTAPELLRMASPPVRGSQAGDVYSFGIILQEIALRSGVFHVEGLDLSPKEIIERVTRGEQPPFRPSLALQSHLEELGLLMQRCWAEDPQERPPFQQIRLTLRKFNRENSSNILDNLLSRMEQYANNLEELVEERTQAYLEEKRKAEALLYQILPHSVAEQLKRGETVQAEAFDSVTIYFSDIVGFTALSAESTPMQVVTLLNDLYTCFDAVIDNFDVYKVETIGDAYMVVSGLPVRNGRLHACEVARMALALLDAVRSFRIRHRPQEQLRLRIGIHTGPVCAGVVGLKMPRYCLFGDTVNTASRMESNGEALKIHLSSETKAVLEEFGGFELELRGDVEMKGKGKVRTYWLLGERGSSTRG
Chain of monkey NPR1 extracellular domain expressed with a C-terminal myc-myc-hexahistidine (monkey) (P16066 other isoform, or with tags, fused parts or gaps): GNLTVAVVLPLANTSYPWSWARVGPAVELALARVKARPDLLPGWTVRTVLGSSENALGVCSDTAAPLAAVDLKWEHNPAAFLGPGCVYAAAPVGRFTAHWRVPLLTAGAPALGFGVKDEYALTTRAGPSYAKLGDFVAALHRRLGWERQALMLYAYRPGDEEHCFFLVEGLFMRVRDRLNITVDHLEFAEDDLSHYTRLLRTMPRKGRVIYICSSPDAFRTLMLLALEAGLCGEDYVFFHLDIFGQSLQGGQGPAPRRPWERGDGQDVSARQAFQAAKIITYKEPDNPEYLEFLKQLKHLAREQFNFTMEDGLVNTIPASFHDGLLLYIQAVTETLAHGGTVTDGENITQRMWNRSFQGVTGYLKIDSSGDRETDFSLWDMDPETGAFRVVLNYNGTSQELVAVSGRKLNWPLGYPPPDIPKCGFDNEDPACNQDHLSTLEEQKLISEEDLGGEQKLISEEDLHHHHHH
Chain of human NPR1 extracellular domain expressed with a C-terminal myc-myc-hexahistidine (human) (P16066 other isoform, or with tags, fused parts or gaps): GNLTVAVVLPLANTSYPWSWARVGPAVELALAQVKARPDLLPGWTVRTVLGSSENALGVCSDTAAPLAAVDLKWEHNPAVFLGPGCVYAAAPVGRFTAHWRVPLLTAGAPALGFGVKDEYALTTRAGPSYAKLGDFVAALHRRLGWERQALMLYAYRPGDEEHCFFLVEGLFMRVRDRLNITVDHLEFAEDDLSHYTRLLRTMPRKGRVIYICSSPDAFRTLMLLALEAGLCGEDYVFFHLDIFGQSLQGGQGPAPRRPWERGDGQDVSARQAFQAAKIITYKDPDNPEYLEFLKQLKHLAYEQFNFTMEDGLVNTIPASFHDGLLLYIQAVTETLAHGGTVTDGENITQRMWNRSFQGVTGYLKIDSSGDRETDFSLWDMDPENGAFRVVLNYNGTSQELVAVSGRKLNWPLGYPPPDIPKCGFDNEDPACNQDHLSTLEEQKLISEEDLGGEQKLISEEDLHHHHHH
Chain of dog NPR1 extracellular domain expressed with a C-terminal myc-myc-hexahistidine (dog) (chain, as listed by the source limits assumed): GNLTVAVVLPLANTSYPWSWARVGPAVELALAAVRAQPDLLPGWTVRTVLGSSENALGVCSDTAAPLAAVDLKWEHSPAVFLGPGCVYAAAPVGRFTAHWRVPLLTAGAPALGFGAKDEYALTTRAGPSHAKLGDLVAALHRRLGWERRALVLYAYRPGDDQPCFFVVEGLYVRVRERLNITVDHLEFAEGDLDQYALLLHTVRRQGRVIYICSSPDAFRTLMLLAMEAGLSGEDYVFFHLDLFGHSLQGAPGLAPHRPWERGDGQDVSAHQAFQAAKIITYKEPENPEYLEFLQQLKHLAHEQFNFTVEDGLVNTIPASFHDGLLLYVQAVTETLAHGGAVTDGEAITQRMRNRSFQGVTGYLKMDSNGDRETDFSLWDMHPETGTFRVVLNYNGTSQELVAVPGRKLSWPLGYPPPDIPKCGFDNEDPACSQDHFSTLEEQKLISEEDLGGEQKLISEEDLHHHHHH
Chain of mouse NPR1 extracellular domain expressed with a C-terminal myc-myc-hexahistidine (mouse) (P18293 other isoform, or with tags, fused parts or gaps): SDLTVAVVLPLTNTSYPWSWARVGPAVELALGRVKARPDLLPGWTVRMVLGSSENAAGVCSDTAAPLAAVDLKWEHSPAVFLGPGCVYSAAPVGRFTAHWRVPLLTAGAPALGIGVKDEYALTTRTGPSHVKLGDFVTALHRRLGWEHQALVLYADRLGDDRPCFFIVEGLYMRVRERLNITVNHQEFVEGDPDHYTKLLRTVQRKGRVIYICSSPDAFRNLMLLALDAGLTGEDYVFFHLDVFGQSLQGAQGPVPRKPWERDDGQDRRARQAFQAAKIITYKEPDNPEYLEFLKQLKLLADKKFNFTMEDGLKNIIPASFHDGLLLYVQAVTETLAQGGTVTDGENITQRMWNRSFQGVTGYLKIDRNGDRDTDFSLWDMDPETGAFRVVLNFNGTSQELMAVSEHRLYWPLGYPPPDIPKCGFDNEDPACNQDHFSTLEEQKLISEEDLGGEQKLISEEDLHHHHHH
Chain of pig NPR1 extracellular domain expressed with a C-terminal myc-myc-hexahistidine (pig) (chain, as listed by the source limits assumed): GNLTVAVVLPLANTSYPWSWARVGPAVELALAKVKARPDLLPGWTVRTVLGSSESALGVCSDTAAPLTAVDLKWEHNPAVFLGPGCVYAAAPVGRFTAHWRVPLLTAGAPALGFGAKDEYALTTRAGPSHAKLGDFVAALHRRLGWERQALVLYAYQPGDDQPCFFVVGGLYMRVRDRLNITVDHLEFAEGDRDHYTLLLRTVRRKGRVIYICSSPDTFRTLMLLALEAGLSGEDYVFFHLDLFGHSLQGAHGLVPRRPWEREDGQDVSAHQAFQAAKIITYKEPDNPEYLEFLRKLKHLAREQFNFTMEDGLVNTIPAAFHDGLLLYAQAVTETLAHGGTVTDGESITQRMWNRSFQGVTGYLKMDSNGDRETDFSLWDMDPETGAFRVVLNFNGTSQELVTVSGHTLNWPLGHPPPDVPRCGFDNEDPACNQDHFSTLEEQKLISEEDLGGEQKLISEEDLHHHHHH
Chain of hNPR1-MMH in the presence of hANP (receptor-ligand complex) (human) (P01160 124-151 limits assumed, chain 2 of 2): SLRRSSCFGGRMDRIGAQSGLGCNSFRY

Turning to Isotype control (antibody), in assay [1], the Max Kill, %, secondary ADC mediated cytotoxicity, no ligand worked out at 0.01%. Also, the Max Kill, %, secondary ADC mediated cytotoxicity, with 100 nM ANP in assay [1] is -4%. The same substance returned a Max Kill, %, secondary ADC mediated cytotoxicity, with 100 nM BNP in assay [1] of 0.5%. The Max inh., %, cGMP accumulation assay, with 0.2 nM ANP in assay [1] was -1%. Moreover, the Max inh., %, cGMP accumulation assay, with 0.7 nM BNP in [1] is -9%. Further, the 40 nM Ag Bound (RU) came to 0 RU in assay [2]; 0 RU in assay [3]; 1 RU in assay [4]; 0 RU in assay [5]; 0 RU in assay [6]; 0 RU in assay [7]. Also, the 40 nM Ag Bound (RU) in [8], in [9], in [10], in [11], in assay [12] and in assay [13] was 0 RU each time. The 30 nM Ag Bound (RU) was 2 RU in [14], 1 RU in assay [15], 2 RU in assay [16] and 2 RU in assay [17].
